Laboratory results taken from patent US20230080224A1 (AGENCY FOR SCIENCE TECHNOLOGY AND RESEARCH, published 2023).
Values belong to the binder of their own block, whether it stands above or below them.

What was measured:
[1] = molecular target: T1, ALPI (screening and SPR/ELISA protein) (UniProt P09923 20-503, limits assumed); experiment: screen of rabbit B-cell clones by ELISA and FACS
T1 sequence (looked up): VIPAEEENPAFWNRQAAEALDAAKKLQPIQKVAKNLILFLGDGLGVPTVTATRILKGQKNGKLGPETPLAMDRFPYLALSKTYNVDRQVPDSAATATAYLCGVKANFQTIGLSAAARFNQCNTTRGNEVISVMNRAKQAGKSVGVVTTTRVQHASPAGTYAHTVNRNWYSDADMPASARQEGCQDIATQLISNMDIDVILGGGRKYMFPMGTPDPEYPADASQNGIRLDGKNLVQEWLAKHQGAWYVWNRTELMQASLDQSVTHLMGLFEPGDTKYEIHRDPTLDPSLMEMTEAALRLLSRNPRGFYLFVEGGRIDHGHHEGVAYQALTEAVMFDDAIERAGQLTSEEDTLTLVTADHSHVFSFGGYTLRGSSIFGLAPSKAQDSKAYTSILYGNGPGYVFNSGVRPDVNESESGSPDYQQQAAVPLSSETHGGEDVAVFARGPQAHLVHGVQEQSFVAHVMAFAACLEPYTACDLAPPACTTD
Text: (§1) Specific clones were screened and identified by ELISA and high throughput flow cytometry (FIG. 3). Rabbit kidney cells were transfected with either truncated (for ELISA screen) or full-length (for FACS screen) ALPI and ALPPL2.

[2] = molecular target: T2, human ALPPL2 (recombinant protein) (human, UniProt P10696 20-503, limits assumed); experiment: screen of rabbit B-cell clones by ELISA and FACS
T2 construct: biotinylated where captured on streptavidin
Text: as §1

[3] = molecular target: T3, human ALPPL2 (recombinant protein) (human, UniProt P10696 20-503); experiment: BLI; single concentration
T3 chain: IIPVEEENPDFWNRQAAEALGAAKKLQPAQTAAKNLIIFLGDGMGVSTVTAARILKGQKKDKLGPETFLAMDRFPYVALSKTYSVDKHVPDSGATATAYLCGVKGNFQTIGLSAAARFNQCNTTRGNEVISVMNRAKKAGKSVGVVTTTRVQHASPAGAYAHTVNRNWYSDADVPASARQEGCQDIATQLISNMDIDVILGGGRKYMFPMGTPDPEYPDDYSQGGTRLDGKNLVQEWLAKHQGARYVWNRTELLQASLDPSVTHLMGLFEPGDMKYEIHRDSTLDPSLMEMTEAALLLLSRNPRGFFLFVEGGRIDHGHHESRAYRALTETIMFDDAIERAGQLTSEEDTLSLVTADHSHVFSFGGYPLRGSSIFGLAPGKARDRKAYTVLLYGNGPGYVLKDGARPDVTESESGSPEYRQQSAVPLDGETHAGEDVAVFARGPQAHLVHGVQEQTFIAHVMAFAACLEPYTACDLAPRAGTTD

[4] = molecular target: T4, human ALPP expressed on cells (human, UniProt P05187 23-506); experiment: FACS (FIG. 12A)
T4 construct: whole, on cells

[5] = molecular target: T5, human ALPPL2 expressed on cells (human, UniProt P10696 20-503); experiment: FACS (FIG. 12A)
T5 construct: whole, on cells; also called placental-like alkaline phosphatase

[6] = molecular target: T2, human ALPPL2 (recombinant protein); experiment: SPR, Biacore T200, ligand captured by streptavidin on CM5 chip, antibody as analyte
Experimental: (§2) Select clones (C4, C15, C131, C12, C18, C36 and C53) were humanized by grafting the CDRs to a human IgG1 framework. […] Surface plasmon resonance was studied using Biacore T200. Ligands (e.g. ALPPL2 or ALPP) were immobilized on biosensors CM5 chips captured with the streptavidin. Ligands-loaded sensors were then incubated with different concentrations of analyte (recombinant expressed humanized antibody clones) to measure affinity.

[7] = molecular target: T6, human ALPP (recombinant protein) (human, UniProt P05187 23-506, limits assumed); experiment: biolayer interferometry, biotinylated ligand on SA biosensors (FIG. 12G)
Experimental: Chimerized C53 is also cross-reactive towards rhesus macaque ortholog. Binding affinity of humanized C53 as compared to humanized C36 to ALPPL and ALPP was performed using Biolayer Interferometry. In this technique, biotinylated ligands (i.e. ALPPL2 or ALPP) were immobilized on SA biosensors. Ligands-loaded sensors were then incubated with different concentrations of analyte (recombinantly expressed humanized antibody clones) in the buffer.

[8] = molecular target: T5, human ALPPL2 expressed on cells; experiment: FACS (FIG. 13)
[9] = molecular target: T4, human ALPP expressed on cells; experiment: FACS on transiently transfected 293T cells (FIG. 13A)
[10] = molecular target: T7, human ALPI expressed on cells (human, UniProt P09923 20-503); experiment: as above
T7 construct: whole, on cells
T7 sequence (looked up): T1 sequence (looked up)

[11] = molecular target: T8, human ALPL expressed on cells (human, UniProt P05186 18-501); experiment: as above
T8 construct: whole, on cells
T8 sequence (looked up): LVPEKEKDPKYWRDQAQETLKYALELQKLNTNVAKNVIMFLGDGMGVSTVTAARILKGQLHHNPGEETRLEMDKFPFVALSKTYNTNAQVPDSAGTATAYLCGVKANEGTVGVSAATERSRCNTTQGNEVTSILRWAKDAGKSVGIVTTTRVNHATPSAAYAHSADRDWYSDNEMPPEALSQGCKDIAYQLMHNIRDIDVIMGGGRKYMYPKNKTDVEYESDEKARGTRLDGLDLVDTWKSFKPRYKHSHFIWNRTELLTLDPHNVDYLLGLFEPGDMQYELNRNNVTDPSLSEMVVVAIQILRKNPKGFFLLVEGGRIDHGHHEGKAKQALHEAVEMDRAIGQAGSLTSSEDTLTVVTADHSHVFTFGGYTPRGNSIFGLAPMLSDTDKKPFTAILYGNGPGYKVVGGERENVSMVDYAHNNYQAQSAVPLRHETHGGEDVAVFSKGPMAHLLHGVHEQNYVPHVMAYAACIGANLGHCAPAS

[12] = molecular target: T3, human ALPPL2 (recombinant protein); experiment: BLI
[13] = molecular target: T6, human ALPP (recombinant protein); experiment: SPR, Biacore T200, ligand captured by streptavidin on CM5 chip, antibody as analyte
Experimental: as §2

[14] = molecular target: T4, human ALPP expressed on cells; experiment: FACS (FIG. 13)
[15] = molecular target: T9, human ALPP (recombinant protein) (human, UniProt P05187 23-506); experiment: BLI
T9 chain: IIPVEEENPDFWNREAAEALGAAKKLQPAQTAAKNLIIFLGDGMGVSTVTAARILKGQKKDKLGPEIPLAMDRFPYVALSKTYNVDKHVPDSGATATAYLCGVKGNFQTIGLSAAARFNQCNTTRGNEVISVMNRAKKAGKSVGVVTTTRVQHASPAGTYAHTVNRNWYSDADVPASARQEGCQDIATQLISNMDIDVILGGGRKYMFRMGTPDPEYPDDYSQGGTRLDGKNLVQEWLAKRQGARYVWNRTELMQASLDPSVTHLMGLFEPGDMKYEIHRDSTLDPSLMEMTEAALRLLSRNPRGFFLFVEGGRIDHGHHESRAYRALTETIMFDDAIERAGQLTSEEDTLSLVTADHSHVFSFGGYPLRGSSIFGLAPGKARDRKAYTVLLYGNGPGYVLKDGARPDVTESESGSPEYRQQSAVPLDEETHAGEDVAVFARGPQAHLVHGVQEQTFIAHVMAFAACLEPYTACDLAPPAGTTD

[16] = molecular target: T3, human ALPPL2 (recombinant protein); experiment: SPR
[17] = molecular target: T9, human ALPP (recombinant protein); experiment: SPR

binding result [1]: no binding
binding result [2]: binds
Kd [3]: 0.001 nM
binding result [4]: binds
binding result [5]: binds
B1: AB1C4 (antibody, V domains shown)
VH: QSLEESGGDLVKPGPSLTLTCKASGFTISNNYWICWVRQAPGKGLEWIGCIATGDGSTYYASWAKGRFTISKTSSTTVTLQMTSLTAADTATYFCARGAAGSSWTTYFDFWGPGTPVTVSS
VL: DIVMTQTPASVEAAVGGTVTIKCQAGQNIDNYLSWYQQKPGQPPKLLIYRASTLASGVPSRFKGSGSGTEFTLTISDLECADAATYYCQNNNGGSTFTGFPFGGGTEVVVK
notes: Rabbit antibody cloned from a single B cell; also called rabbit C4

Kd [16]: 0.014 nM
Kd [17]: 0.0001 nM
binding result [6]: binds
binding result [13]: binds
binding result [14]: binds
binding result [8]: binds
binding result [10]: no binding
binding result [11]: no binding
B4: humanized C4 (antibody, V domains shown)
VH: EVQLVESGGGLVQPGGSLRLSCAASGFTISNNYWICWVRQAPGKGLEWIGCIATGDGSTYYASWAKGRFTISRDNSKNTLYLQMNSLRAEDTAVYYCARGAAGSSWTTYFDFWGQGTLVTVSS
VL: DIQMTQSPSSLSASVGDRVTITCQAGQNIDNYLSWYQQKPGKVPKLLIYRASTLASGVPSRFSGSGSGTDFTLTISSLQPEDVATYYCQNNNGGSTFTGFPFGQGTKVEIK
notes: CDRs grafted to a human IgG1 framework; recombinant; also called hC4

Second part, the binder before the results:

B2: humanized C53 (antibody, human IgG1, V domains shown)
VH: EVQLVESGGGLVQPGGSLRLSCAASGFSFSSGYDMCWVRQAPGKGLEWIACIHSSSGTTYYASWAKGRFTISRDNSKNTLYLQMNSLRAEDTAVYYCARDFSYTDDYISYVYATDLWGQGTLVTVSS
VL: DIQMTQSPSSLSASVGDRVTITCQASQSIGSSLAWYQQKPGKVPKLLIYAASYLASGVPSRFSGSGSGTDFTLTISSLQPEDVATYYCQSTYYSSSTDIRAFGQGTKVEIK
notes: CDRs grafted to a human IgG1 framework; recombinant; also called hC53
binding result [6]: binds
binding result [7]: no binding
binding result [8]: binds
binding result [9]: no binding
binding result [10]: no binding
binding result [11]: no binding
Kd [12]: 1 nM

B3: humanized C36 (antibody, human IgG1, V domains shown)
VH: EVQLVESGGGLVQPGGSLRLSCAASGFSFSSGYNICWVRQAPGKGLELIACIYTSSSGSTYYASWAKGRFTISRDNSKNTLYLQMNSLRAEDTAVYYCARGEAYYAYGYVGYAYYHGAFDPWGQGTLVTVSS
VL: DIQMTQSPSSLSASVGDRVTITCQASHSISKYFSWYQQKPGKVPKLLIYEASTLASGVPSRFSGSGSGTDFTLTISSLQPEDVATYYCQSYYYGTSSSYAFGQGTKVEIK
notes: CDRs grafted to a human IgG1 framework; recombinant; also called hC36
binding result [6]: binds
binding result [13]: binds
binding result [14]: binds
binding result [8]: binds
binding result [10]: no binding
binding result [11]: no binding
Kd [12]: 0.3 nM
Kd [15]: 0.2 nM
